Molecular target: HLA-A2 Ag on A375SM melanoma cells (human)
Assay: cell-based or functional assay

- inhibition of lysis of A375SM melanoma cells by I-100-CTL and I-102-CTL (51Cr release assay): > 50%
Substance: anti-HLA-A2 mAb MA2.1 (antibody)

— patent US20060141532A1
